Assay [1] has as its target T1, TRBC1 protein (recombinant) (Homo sapiens, UniProt P01850).
T1 construct: T cell receptor beta constant 1 (TRBC1), recombinant protein bought from Acro Biosystems; The discussion calls it 'TRBC1 peptide'; see the vendor's data sheet for the catalogue number; also called recombinant TRBC1 protein; TRBC1 peptide; source: bought: Acro Biosystems, cat. no; TR1-H52H4
The assay is described as follows: SPR; Biacore T200, 25 °C; antibodies captured on protein A/G immobilised on CM5 chips; TRBC1 or TRBC2 protein as analyte, threefold dilutions from 1,000 nM to 4.1 nM, multiple-cycle kinetics; PBS-P (20 mM phosphate pH 7.4, 137 mM NaCl, 2.7 mM KCl, 0.05% P20); 1:1 kinetics binding model. The note with it: both partners purified.

Assay [2] deals with T2, TRBC2 protein (recombinant) (Homo sapiens, UniProt A0A5B9).
T2 construct: T cell receptor beta constant 2 (TRBC2), recombinant protein bought from Acro Biosystems; The discussion calls it 'TRBC2 peptide'; see the vendor's data sheet for the catalogue number; also called recombinant TRBC2 protein; TRBC2 peptide; source: bought: Acro Biosystems, cat. no; TR2-H52H3
Described as above. The note with it: both partners purified.

The target of another assay is T3, TRBC1^+ TCR on T cells (Homo sapiens, UniProt P01850).
T3 construct: variable part (TRBV-TRBD-TRBJ) of the beta chain, different in each cell line or T cell; T cell receptor beta constant 1 (TRBC1) as part of the alpha-beta TCR on the cell surface; On cells the beta chain stands in the whole TCR-CD3 complex; also called TRBC1^+ cells; source: endogenous on wild-type Jurkat and H9 cells; normal human T cells from PBMCs
The assay is described as follows: flow cytometry on cells; T cell cancer cell lines stained with anti-TRBC2 antibodies with a mouse IgG2a Fc, then anti-mouse IgG-Alexa Fluor-647. The note with it: one partner purified. (Flow cytometry measures light scatter and fluorescence of single cells or particles in a stream.)

B1: YR3-A5 anti-TRBC2 antibody (antibody, V domains shown)
VH: QVQLVQSGAEVKKPGASVKVSCKASPRGFHGYHMHWVRQAPGQGLEWMGFINPYNDDIQSNERFRGRVTMTSDKSTTTAYMELSSLRSEDTAVYYCARGNGKWGDGAYRFFDFWGQGTLVTVSS
VL: DVVMTQSPLSLPVTPGEPASISCRSSQNLVHSNGRTYLQWYLQKPGQSPQLLIYRVSNRFPGVPDRFSGSGSGTDFTLKISRVEAEDVGVYFCSQSTHVPYTFGGGTKVEIK
notes: also called parent; source: transient transfection of CHO cells (ExpiCHO or CHO-S), purified (HisTrap column or Protein A magnetic beads; SEC); copies: 2 + 2
Consider B1, for which the binding result in assay [1] was “no binding”. The Kd in assay [2] came to 23 nM.

B2: JX1.1 anti-TRBC2 antibody (antibody, V domains shown)
VH: QVQLVQSGAEVKKPGASVKVSCKASPYGFHGYHMHWVRQAPGQGLEWMGFINPYNDDIQSNERFRGRVTMTSDKSTTTAYMELSSLRSEDTAVYYCARGNGKWGDGAYRFFDFWGQGTLVTVSS
VL: DVVMTQSPLSLPVTPGEPASISCRSSQNLKHRNGRTYLQWYLQKPGQSPQLLIYRVSNRFPGVPDRFSGSGSGTDFTLKISRVEAEDVGVYFCSQSTHVPYTFGGGTKVEIK
notes: human VH; murine IgG2a Fc region; human VL; Human variable light and heavy chains fused to a murine IgG2a Fc region; also called clone V30K, S32R, R27Y; source: ExpiCHO or CHO-S cells, purified (HisTrap column or Protein A magnetic beads; SEC); copies: 2 + 2
Regarding B2, in the assay with TRBC1^+ TCR on T cells, the binding result is given as “no binding”. Besides, the binding result in assay [1] was “no binding”. Also, in assay [2], the Kd was found to be 10 nM and the koff was determined as 0.0013 s⁻¹.

For orientation: Kd means the constant that tells how readily two partners part at equilibrium. In general, koff refers to the first-order rate constant of dissociation.

For the origin of these results see paper PMC13070007, “TRBC2-targeting antibody–drug conjugates for the treatment of T cell cancers” (Nature cancer, 2025).
